The data set addresses T1, SIP2 D1 (Plasmodium falciparum, UniProt C6KSN9 177-235).
T1 sequence: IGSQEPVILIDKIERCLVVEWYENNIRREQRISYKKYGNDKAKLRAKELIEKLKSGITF
Put plainly: gcPBM; about 25 ug protein; PBS, 1% milk, 0.2 mg/ml BSA, salmon testes DNA, 0.03% Triton X-100. The note with it: tags: N-terminal GST (pGEX-4T-1), kept; label: surface-attached array probe.

B1: GTGCAC_site10227 (dsDNA)
DNA 1: TATACATATTTACAAGTGCATAATATTTTACAAAAA
DNA 2: TTTTTGTAAAATATTATGCACTTGTAAATATGTATA
Turning to B1, the binding signal is 8.65 ln median PBM intensity, better of two orientations.

B2: GTGCAC_site9663 (dsDNA)
DNA 1: AAATAGTAAGAGATGGTGCGTTTCCTTTTTTTTTTT
DNA 2: AAAAAAAAAAAGGAAACGCACCATCTCTTACTATTT
For the molecule B2, the binding signal was 9.3 ln median PBM intensity, better of two orientations.

B3: GTGCAC_site10335 (dsDNA)
DNA 1: ATCAAGCGCAATGTGGTGCGTAAATTTTGTATTATA
DNA 2: TATAATACAAAATTTACGCACCACATTGCGCTTGAT
As for B3, the binding signal was 9.46 ln median PBM intensity, better of two orientations.

B4: GTGCAC_site10065 (dsDNA)
DNA 1: CTTAAAATATATTTAGTGCATATACTAATATATTAT
DNA 2: ATAATATATTAGTATATGCACTAAATATATTTTAAG
In the case of B4, the binding signal was 8.52 ln median PBM intensity, better of two orientations.

B5: GTGCAC_site10455 (dsDNA)
DNA 1: AATATTCAATATAAAGTGCATTATTGTGGACCTAAT
DNA 2: ATTAGGTCCACAATAATGCACTTTATATTGAATATT
On to B5, for which the binding signal was 9.41 ln median PBM intensity, better of two orientations.

B6: GTGCAC_site9721 (dsDNA)
DNA 1: TATATATATATATATGTGCACTGGACATATTTTTAT
DNA 2: ATAAAAATATGTCCAGTGCACATATATATATATATA
As to B6, the binding signal is 9.71 ln median PBM intensity, better of two orientations.

B7: GTGCAC_site10226 (dsDNA)
DNA 1: TTTTATGCGCAATAAGTGCATTTAAAATATATATAT
DNA 2: ATATATATATTTTAAATGCACTTATTGCGCATAAAA
As for B7, the binding signal was 8.59 ln median PBM intensity, better of two orientations.

B8: GTGCAC_site10234 (dsDNA)
DNA 1: TAAAACAAAAAAAAGATGCACTATTTATTTTATTAT
DNA 2: ATAATAAAATAAATAGTGCATCTTTTTTTTGTTTTA
For B8, the binding signal is 9.6 ln median PBM intensity, better of two orientations.

B9: GTGCAC_site9473 (dsDNA)
DNA 1: TGTATTAACAAAAAGGTGCGGATATATATAAAAAAT
DNA 2: ATTTTTTATATATATCCGCACCTTTTTGTTAATACA
Turning to B9, the binding signal was 9.85 ln median PBM intensity, better of two orientations.

B10: GTGCAC_site9975 (dsDNA)
DNA 1: TGATTCACTATAGTAGTGCATATTATATATATATAT
DNA 2: ATATATATATATAATATGCACTACTATAGTGAATCA
Take B10: the binding signal is 9.26 ln median PBM intensity, better of two orientations.

B11: GTGCAC_site9783 (dsDNA)
DNA 1: TAAATTTATATATAGGTGCGCAATTTGATAATAGTT
DNA 2: AACTATTATCAAATTGCGCACCTATATATAAATTTA
Consider B11, for which the binding signal is 10 ln median PBM intensity, better of two orientations.

B12: GTGCAC_site9739 (dsDNA)
DNA 1: TTATAAATATTCACTGTGCACTGATGGAATATAAAT
DNA 2: ATTTATATTCCATCAGTGCACAGTGAATATTTATAA
B12: the binding signal is 9.91 ln median PBM intensity, better of two orientations.

B13: GTGCAC_site10243 (dsDNA)
DNA 1: ACATATTAAATATGAGTGCAATATATATATATATAA
DNA 2: TTATATATATATATATTGCACTCATATTTAATATGT
Consider B13, for which the binding signal was 8.44 ln median PBM intensity, better of two orientations.

B14: GTGCAC_site9588 (dsDNA)
DNA 1: AAAAAAAAAAATTCGGTGCAATGTAATTAATGTAAA
DNA 2: TTTACATTAATTACATTGCACCGAATTTTTTTTTTT
B14: the binding signal was 9.5 ln median PBM intensity, better of two orientations.

B15: GTGCAC_site9982 (dsDNA)
DNA 1: ATTGTTATTTATTGTGTGCGCATTAATACATACATA
DNA 2: TATGTATGTATTAATGCGCACACAATAAATAACAAT
Turning to B15, the binding signal is 9.22 ln median PBM intensity, better of two orientations.

B16: GTGCAC_site10359 (dsDNA)
DNA 1: TACACTTGTAATTGCGTGCACGAAGGATATATATAT
DNA 2: ATATATATATCCTTCGTGCACGCAATTACAAGTGTA
B16: the binding signal was 8.81 ln median PBM intensity, better of two orientations.

B17: GTGCAC_site10538 (dsDNA)
DNA 1: TTATTATAATCATTAGTGCATATATTATTTTTATAT
DNA 2: ATATAAAAATAATATATGCACTAATGATTATAATAA
As for B17, the binding signal was 8.55 ln median PBM intensity, better of two orientations.

B18: GTGCAC_site10077 (dsDNA)
DNA 1: TTCATTCAAATTAACGTGCACATTATTAGTAAAAAC
DNA 2: GTTTTTACTAATAATGTGCACGTTAATTTGAATGAA
Consider B18, for which the binding signal was 10 ln median PBM intensity, better of two orientations.

B19: GTGCAC_site9453 (dsDNA)
DNA 1: TGTTTTATTTTATTAGTGCATTTTTATTTATAATAG
DNA 2: CTATTATAAATAAAAATGCACTAATAAAATAAAACA
As for B19, the binding signal was 9.34 ln median PBM intensity, better of two orientations.

B20: GTGCAC_site9963 (dsDNA)
DNA 1: AATAATAAAAATATTGTGCACTTGTATATTTATTAT
DNA 2: ATAATAAATATACAAGTGCACAATATTTTTATTATT
For B20, the binding signal is 9.87 ln median PBM intensity, better of two orientations.

B21: GTGCAC_site9718 (dsDNA)
DNA 1: TCTTTTTGCATGTGTGTGCGCACAAAATACACAAAA
DNA 2: TTTTGTGTATTTTGTGCGCACACACATGCAAAAAGA
For B21, the binding signal was 9.06 ln median PBM intensity, better of two orientations.

B22: GTGCAC_site10182 (dsDNA)
DNA 1: GTATGATGCATAAGAGTGCATAAGGATATTTCTTCA
DNA 2: TGAAGAAATATCCTTATGCACTCTTATGCATCATAC
In the case of B22, the binding signal was 9.94 ln median PBM intensity, better of two orientations.

B23: GTGCAC_site10774 (dsDNA)
DNA 1: ACGTTAAAATATTGGGTGCTAACACAATAAAAATAA
DNA 2: TTATTTTTATTGTGTTAGCACCCAATATTTTAACGT
Turning to B23, the binding signal is 8.87 ln median PBM intensity, better of two orientations.

B24: GTGCAC_site9794 (dsDNA)
DNA 1: AAAAATATATATTCAGTGCATATAACAAAAATTATA
DNA 2: TATAATTTTTGTTATATGCACTGAATATATATTTTT
In the case of B24, the binding signal is 8.79 ln median PBM intensity, better of two orientations.

B25: GTGCAC_site9697 (dsDNA)
DNA 1: GAACATTTATTGTGTGTGCACAATTCTTTTTTAACC
DNA 2: GGTTAAAAAAGAATTGTGCACACACAATAAATGTTC
As to B25, the binding signal is 8.57 ln median PBM intensity, better of two orientations.

B26: GTGCAC_site10256 (dsDNA)
DNA 1: AAGGAATGCATATAGGTGCTACACATAAAAATAAAA
DNA 2: TTTTATTTTTATGTGTAGCACCTATATGCATTCCTT
For the molecule B26, the binding signal is 9.67 ln median PBM intensity, better of two orientations.

B27: GTGCAC_site9445 (dsDNA)
DNA 1: TCCTTTATTTTTAAAGTGCATATACATGTACATTAT
DNA 2: ATAATGTACATGTATATGCACTTTAAAAATAAAGGA
For B27, the binding signal was 8.63 ln median PBM intensity, better of two orientations.

B28: GTGCAC_site10571 (dsDNA)
DNA 1: GATTATTTCTAAAAAGTGCATATTTAAAAATCTCCT
DNA 2: AGGAGATTTTTAAATATGCACTTTTTAGAAATAATC
As to B28, the binding signal was 9.76 ln median PBM intensity, better of two orientations.

B29: GTGCAC_site10531 (dsDNA)
DNA 1: AGTAATTATTTTAGAGTGCATAGTTTTTTAATAAAT
DNA 2: ATTTATTAAAAAACTATGCACTCTAAAATAATTACT
In the case of B29, the binding signal was 8.98 ln median PBM intensity, better of two orientations.

B30: GTGCAC_site10711 (dsDNA)
DNA 1: TAATAAAATATGTACGTGCACATAATTATACTAAAA
DNA 2: TTTTAGTATAATTATGTGCACGTACATATTTTATTA
As for B30, the binding signal is 8.95 ln median PBM intensity, better of two orientations.

B31: GTGCAC_site10625 (dsDNA)
DNA 1: TTTTTATTTTCATATGTGCACTTATATATATATATA
DNA 2: TATATATATATATAAGTGCACATATGAAAATAAAAA
Regarding B31, the binding signal was 10.1 ln median PBM intensity, better of two orientations.

B32: GTGCAC_site9653 (dsDNA)
DNA 1: GTGTACTTTTAAATAGTGCATTTTACAATAATAAAA
DNA 2: TTTTATTATTGTAAAATGCACTATTTAAAAGTACAC
For B32, the binding signal was 9.56 ln median PBM intensity, better of two orientations.

B33: GTGCAC_site10484 (dsDNA)
DNA 1: AAATTTGCTTTACCAGTGCAAAAAAAAAAAAAAAAA
DNA 2: TTTTTTTTTTTTTTTTTGCACTGGTAAAGCAAATTT
For the molecule B33, the binding signal was 8.74 ln median PBM intensity, better of two orientations.

B34: GTGCAC_site9684 (dsDNA)
DNA 1: TGTACGAGTCGTAGAGTGCAGTCTGGAGAAGAGTAC
DNA 2: GTACTCTTCTCCAGACTGCACTCTACGACTCGTACA
Turning to B34, the binding signal is 8.45 ln median PBM intensity, better of two orientations.

B35: GTGCAC_site10192 (dsDNA)
DNA 1: ATATTATTATATATAGTGCATATTATTATTTTTATT
DNA 2: AATAAAAATAATAATATGCACTATATATAATAATAT
Regarding B35, the binding signal was 9.16 ln median PBM intensity, better of two orientations.

B36: GTGCAC_site9748 (dsDNA)
DNA 1: GTTAATCACCATGTGGTGCATATAAGGGCATATTAT
DNA 2: ATAATATGCCCTTATATGCACCACATGGTGATTAAC
On to B36, for which the binding signal is 10.1 ln median PBM intensity, better of two orientations.

B37: GTGCAC_site10440 (dsDNA)
DNA 1: TATTACACATATTATGTGCACATATATAATCAATAT
DNA 2: ATATTGATTATATATGTGCACATAATATGTGTAATA
As for B37, the binding signal is 8.5 ln median PBM intensity, better of two orientations.

B38: GTGCAC_site10395 (dsDNA)
DNA 1: ACTTTAGAAATAGAGGTGCTATTTTTATTACCACAC
DNA 2: GTGTGGTAATAAAAATAGCACCTCTATTTCTAAAGT
As to B38, the binding signal is 8.7 ln median PBM intensity, better of two orientations.

B39: GTGCAC_site10446 (dsDNA)
DNA 1: ATGTATCCAATAGGAGTGCATAATTCTATTAACACC
DNA 2: GGTGTTAATAGAATTATGCACTCCTATTGGATACAT
On to B39, for which the binding signal was 9.02 ln median PBM intensity, better of two orientations.

B40: GTGCAC_site10175 (dsDNA)
DNA 1: ACTTTTTTGAACAACGTGCACGTATTCATAACAAAA
DNA 2: TTTTGTTATGAATACGTGCACGTTGTTCAAAAAAGT
Regarding B40, the binding signal is 8.77 ln median PBM intensity, better of two orientations.

B41: GTGCAC_site10360 (dsDNA)
DNA 1: TACCCTTGCATGTAGGTGCAATTTTTTTTTTTTTTT
DNA 2: AAAAAAAAAAAAAAATTGCACCTACATGCAAGGGTA
B41: the binding signal was 10 ln median PBM intensity, better of two orientations.
